The text below walks through data of the DeepSol protein solubility set.

A short description of this series: soluble on expression in E. coli; label from the status in PepcDB or PDB records.
Regarding “MGSDKIHHHHHHMSWKLSIIRLLNKSLVPNQQRALVVFTVLLLCACGKAKIPFSPITVSQTPVTTAQFTDDIDTVSTLEAKEEVHLAAQASGRIIELKIDQGDQVQPGQMLVVLDQAQIRAELADFKAQEQKNKLNWQRYEFLVPQGAASALDRDEYKAQYIASREKVKATEATLAYSNLRSPISGIVADVDVKVGDVIRSGDPFTKLIRNNRLFARVEVPATFSDRIKIGLPVFLNKTGSSDVMATGEINSVGPTVNRTTQGLLVKAAFENANGSLRNGQRLRTRVQLDTREELSVPFAAVTQTSGQSFVYRVGSFQELEDFSGNISLDKLRKLPPSTRFALQTPVTLGKLQKQRYAVTKGLKLGEQVITTNLLKLRHGMPISVKN”, the “soluble on expression in E. coli” value is given as “not soluble”.

Turning to “MIEIKVPELAESITEGTISQWLLNVGDKVEKGGSVVELETDKVNVEIIAEDSGIVSKLLGEPGDTVEVGATIAILDANGAPVAVSTPAPAEQSKQETAEAPKAAAPSAEQTATLQGLPNTNRPIASPAARKMARELGIDLNDVRSTDPLGRVRPHDVQAHAAAPKEAPAAPKSPAPAPVAKTEFEKPVERVKMSRRRQTIAKRLVEVQQTSAMLTTFNEVDMTAIMELRKERKDAFEKKHDVRLGFMSFFTKAVVAALKQFPLLNAEIQGDELIIKKFYDIGIAVAAPDGLVVPVVRDANQLNFAEIESEIRELGKKARDNKLSLKELQGGTFTITNGGVFGSLMSTPILNSPQVGILGMHKIQVRPVAIDNERMENRPMMYIALSYDHRIVDGKEAVSFLVAVKDMLEDPKSLLLEG”, the “soluble on expression in E. coli” value is on record as “not soluble”.

Consider “MSLAQIDSLFVTRLYRAALSEHGPKIDPQEMEASCIAIAEDDEAGQDWCEENGYPGYTSYASLTDLPWRFPIFADLVKSLDAHVAAFAQDLELNLDGRDLKLEDLWINILPEGGTHASHIHPHSVISGTTYVSMPDGASALKLEDPRHAMMMAHPPRTKDCRRELRSFVYEAPNVGDVLLWESFIRHEVPMNMAEDERISVSFNYAWAEGHHHHHH”, for which the “soluble on expression in E. coli” value is “soluble”.

With “MDVQLPYNVKIEAFEGPLDLLLHLINRYEIDIYDIPVAQITEQYMAYIHAMQELELDIASEYLVMAATLLAIKSKMLLPPSNEEAVDGDIEWGDDGDPREELTQRLLEYKKFKEAARELKRREEERALLFTKPPSDLSAYADEKKAAPLDVNVYDMLGALSKLLRRKKLQKPMRAKISRQDISVEQRMAEILHELKQANGRKNFYELFPSYDRSYIVVTFLAILELMKQDEIIVEQERNFSDLFLAVKPAG”, the “soluble on expression in E. coli” value is listed as “not soluble”.

On to “MYNDRHLSLFHLLFRAKIQRAINYFFMITFSEIQLLRGGKPLLEQASATIHPGDKVGLVGKNGCGKSTLFALLKDELTIDAGSFSKPAHWELAWVAQETPALDRTALEYVIDGDREYRELERQLMDAEAADNGTKVADLHGKIEMVGGYSIRARASELLDGLGFTQEQMSWSLTQFSGGWRMRLNLAQALICRSDLLLLDEPTNHLDLDAVMWLERWLQSYPGTLILISHDRDFLDPIVNRIVHIENQTLNEYTGNYSSFETQRAQKMLQQQAIYQKQQKQMAHMQSYIDRFRYKASKARQAQSRIKALERMEKVLPAQFDNPFSFEFREPAALPNPILMMDQVAAGYGDHLILEKIRLNLVPGSRIGLLGRNGAGKSTLIKLLSGELKPQSGDCTYSQGVKIGYFAQHQLETLHPEETPLQHMMQIAPDKNELELRNYLGSFGFHGEKALEKVAPFSGGEKARLVLALIVWQKPNLLLLDEPTNHLDLDMRQALTLALQSYEGAMVIVSHDRYLLRATTDDLYLVHDHQVGPFDGDLNDYYKWLTDQQKAERKETQPTNTANSANSAAAKKEQKRREADFRKLTAPIRKKLTQLEEKLDKLNHVVSEMEAQLSDTSLYEAQNKATLTEVLAKQAAAKSELEQVELEWMAEQETLEEMERKFNG”, for which the “soluble on expression in E. coli” value is listed as “not soluble”.

As to “MFSRRTTPSPSITTASSSTFSISNLTNNNATSTSDLPASAISNIVPQIPPTPRRVPPKIGLLRHLSGFLESKKDLMNDWEIGGTQNKWVCPSDRHLHLRAQLKSGWSVRTATARSPTNSKAQTGSITAAEQEHIQKVLAKAEESKSKEQQRIGKMVDRLEKMRRRATGNGVTHCLLCHTEFGLLASKSYAAMCVDCRKYVCQRNCGVETTDVNQTTGKVETVFLCKICSEAREVLWKKSGAWFYKEMPEFQRPDDRLPYYVPVTTNGTLPNASSAATPLSGTPGGAGPQPMTMPSTSSCQMTTPKWASPGVCNSPGLQMNGGPTSPLPNGTRRNTGHGGIEFPSSSRPSICSVLQAIEPLDRSKSPRPRIQPRWVNEKVMSSMSVDDEEKAASSSDGESFVQSGVPRRALNNKTPVGSTSATTSPAPPPTSTTPTSRREANMERFSRHTHAHANRLYSTDDDDDSSPESRPSTRSTSPRHSLATPSSYAHDTCHDTSLPDADTRSIDSGVVQSDHSNPQQSGLTCSSSSLTPLQQQASHDHHSGGGTPRRISNPDRTTSRVAQSASGTSLVTPPPPISSRTSPDNCNSSPLNVMEHKSSSASTASSGGNRRVGSAEPVLNNHHAMHNNQNHNDINKKLISQTSRAESPLAASSSFLSSPDDDTKQKNRRRDGVGRVNSLQLRTSLDDVAPPVAPISKMNGHIVSSEPTSSTTSNQNHTSVPIPTVPVVPEEEEEKAITASTESASEPGSLGSITLTLTYHSADKKLKMHLIRAKNLKAMDSNGFSDPYVKFHLLPGNTKATKLTSKTIEKTLNPEWNEEMSYYGITEDDKEKKILRVTVLDRDRIGSDFLGETRIALKKLNDNEMKKFNLYLESALPVPQQTKEEENEDRGKINVGLQYNIQQGSLFININRCVELVGMDSTGFSDPYCKVSLTPITSKAHRAKTSTKKRTLNPEWNEQLQFVVPFKDLPKKTLQIGVYDHDLGKHDDYIGGILLSTSAKDERGRQWIKCIENPGTLVEAWHRLELDS”, the “soluble on expression in E. coli” value is given as “not soluble”.

Take “MGSDKIHHHHHHMRDLLSKKSHRQLELLELLFEHKRWFHRSELAELLNCTERAVKDDLSHVKSAFPDLIFHSSTNGIRIINTDDSDIEMVYHHFFKHSTHFSILEFIFFNEGCQAESICKEFYISSSSLYRIISQINKVIKRQFQFEVSLTPVQIIGNERDIRYFFAQYFSEKYYFLEWPFENFSSEPLSQLLELVYKETSFPMNLSTHRMLKLLLVTNLYRIKFGHFMEVDKDSFNDQSLDFLMQAEGIEGVAQSFESEYNISLDEEVVCQLFVSYFQKMFFIDESLFMKCVKKDSYVEKSYHLLSDFIDQISVKYQIEMENKDNLIWHLHNTAHLYRQELFTEFILFDQKGNTIRNFQNIFPKFVSDIKKELSHYLETLEVCSSSMMVNHLSYTFITHTKHLVINLLQNQPKLKVLVMSNFDQYHAKFVAETLSYYCSNNFELEVWTELELSKESLEDSPYDIIISNFIIPPIENKRLIYSNNINTVSLIYLLNAMMFIRLDE”: the “soluble on expression in E. coli” value was “not soluble”.

With “MGSDKIHHHHHHMYEDELIFLEKTASIDIFEYSEQGIKTILDSPKHYNHGLMIRAAKLSREGFYSLVKYNSSYMLLVPLAKDKGLILSPKIDSLNNSESSFSNIDFINHSTSLAELAYFLYTKESAPNWNRVIYNLNEISDPVKQVQPMKNLHAFHRYANKMVDYFAQLDDKKFKLYINKMKSCQVFGDTLTTSNVIRGEKDILIDIISKLTDRSEKEGLPFEKVVFIQSVSVQKIELQANILNFNGWLEEIPYAYFNELKKWRENLFIDKADKIERYLKLNSRENIKLKDISKELGISEQSLNTIFKKKYGMTTKKYLIELKIENDKELLTTTELKIHDISEYLSFIDESYFISTFNKSCGMTPSKYRQNYIDKLLNKKSV”, the “soluble on expression in E. coli” value is “not soluble”.

Turning to “MGSDKIHHHHHHMKQLLAYCLSIILCVSFTGCMENYLDLYPEDKITSASFPENESDIKLLLNGVYAQLREKEVYNQGLFGFGITDGATPNAFNWGTDEVFNKLGAGRLSSSDGGVVTYRWKRCYEIISRANYLLACMDLVDLSEEAKAKYSGETHFLRGLAYSVLAETYGGVPIILTDISTEEARSLKRASLEETWQQALDDYEVAITNLGVDAPEPGRATKGAALGMKMRAYLYQGKYKEVLSCVEQIDALKKYGLFHSYEGLFDPANENNKEVLFDIQYIEGENSQGSYIDQYCGTGTGSWTRGSRYVPTDDLVAAYETIDGSPVDPENPYENRDPRLGFTAVLPGSYFLGYRFPNYLYPGGAFNHAGNRLKHLSTRKYRIQDESKLPPSGQSYINDIILRYADVLLSKAEAIIETNGNVADAIAILNRIRTERDDVKISLLPTSMSREEAREKVRHERRIELALEGRYWSDVKRWKIGKELYPMIIKDHEGSVIETKFPNGYLEYYDLLPIPDSERSLNPNLDQNPGW”, the “soluble on expression in E. coli” value is recorded as “not soluble”.

Regarding “MGSDKIHHHHHHMSLEKERIEKEHIEEMNQAKLRFFTNVSHEFRTPLTLIISQVELMLQKNTIPPSLHNSIFRIRKHAQQMKLLISELLDFRKFDQNYIQLKLSEQSLNTFLEEVYLSFSAYASQKSISYHLKLLEQDISIWIDDWQMRKVLFNLLSNAFKHVPDKGEISILTSTTPDQVVIAVKDSGNGISKEEQERIFDRFYQADNRNKAIHVGTGIGLALTKSIIQLHHGTIEVESELNEGSCFIVKLPKTRDCFEKDTEVVFLESPEKEPMVQENTIPDENFMKKDDSTFETPLIDEREGKRKVLLVEDNVELLQVLKEIFSSLYQVVTAANGEEGLKQAFAEVPDLIVSDVMMPVMTGTEMCLKIKNNINLCHIPVVLLTALDTVDQNIEGLRRGADDYITKPFNAKILITRCNNLIRNRLLMQSRFAKDQILEINLLAANPIDKGFLDRVIKVVDKHIDNEDFDIGMLCQELGMGRTLLHTKFKALTGMTPNEFILNHRLKIASLMLKNEPYLQVAEISDRLGFGSPRYFSRCFKNQYNVTPMEYRKGAKQENLK”, the “soluble on expression in E. coli” value was “not soluble”.

Turning to “MGSDKIHHHHHHMSNKQHSTTITLPRGTLDLTYQTNAASGNNDLKESSRYQLEDLLDFAQRINPKRAFLFVSKVLGRHIPVAPSTMRDAFTDLANLVPDDLPEPILVIGMAETAVGLSAGVHQALQTRYPQALLLNSTRHAQHDNDNTNNLLTTFSEDHSHASQHLIYQSADKVTQAQLLASKTLIMVDDEASTGNTCVNVVTALRNAGLMQLQQVHLTTLVDWSLNQNQTDAKADDTIASRLPNIDFYRHHLLSGAWKWTDAPNPEPIIMPSVDTTEAGSQALAHTGHWGRFPTLDSTDGFANYLASFQTTFAIFDGQTAFDNAQLPQKILVLGSNEFVWLPFLLAEWLEQNADTVIDNQVIKFSALTRSPIALGGGISTMLSFHDNYGLGMTNFAYNVDPSNWDLIVLCVETSADGVDAMWQDLDNVLIVSPK”, the “soluble on expression in E. coli” value is given as “not soluble”.

In the case of “MDELRELLKAEQQAIKIYKEVLKKAKEGDEQELARLIQEIVKAEKQAVKVYKEAAEKARNPEKRQVIDKILEDEEKHIEWLKAASKQGNAEQFASLVQQILQDEQRHVEEIEKKN”, the “soluble on expression in E. coli” value was “soluble”.

As to “MAKKNNKTKIQKPEAALQTDVAQITATGRVIAEHPSNFITPQKMRALFEDAESGDIRAQHELFADIEERDSDIAANMGTRKRALLTLNWRVAPPRNATPEEEKLSDQAYEMMDSLPTLEDLIMDLMDAVGHGFSALEVEWVFSDGLYLPRNFIHRPQSWFKWDKDNGLLLRTRENPEGEALWPLGWVVHTQKSRSVQQARNGLFRTLSWLYMFKHYAVHDFAEFLELYGMPIRIGKYGAGATKEEKNTLLRAVAEIGHNAAGIMPEGMEIELHNAANGTTATSNPFLQMADWCEKSAARLILGQTLTSGADGKSSTNALGNIHNEVRRDLLVSDAKQVAQTITSQIIGPFLQINYPHADPNRVPKFEFDTREPKDIAVFADAIPKLVDVGVQIPESWVRDKLVIPDVQEGEAVLVRQVPDNPVNRTALAALSAHTVPSKATGRHQEILDGALDDALVEPDFNSQLNPMVRQAVAALNACNSYEEADAALNALYPNLDNAKLRTYMQQALFISDILGQDHARA”, the “soluble on expression in E. coli” value is reported as “not soluble”.
